In paper PMC2871033 (Structure (London, England : 1993), 2010):
One block for each binder: values may come before it.

Key:
[1] = biological target: T1, Cwf8-Myc13 (S. pombe Prp19) (S. pombe, UniProt O14011 1-488); assay: co-IP
T1 sequence (looked up): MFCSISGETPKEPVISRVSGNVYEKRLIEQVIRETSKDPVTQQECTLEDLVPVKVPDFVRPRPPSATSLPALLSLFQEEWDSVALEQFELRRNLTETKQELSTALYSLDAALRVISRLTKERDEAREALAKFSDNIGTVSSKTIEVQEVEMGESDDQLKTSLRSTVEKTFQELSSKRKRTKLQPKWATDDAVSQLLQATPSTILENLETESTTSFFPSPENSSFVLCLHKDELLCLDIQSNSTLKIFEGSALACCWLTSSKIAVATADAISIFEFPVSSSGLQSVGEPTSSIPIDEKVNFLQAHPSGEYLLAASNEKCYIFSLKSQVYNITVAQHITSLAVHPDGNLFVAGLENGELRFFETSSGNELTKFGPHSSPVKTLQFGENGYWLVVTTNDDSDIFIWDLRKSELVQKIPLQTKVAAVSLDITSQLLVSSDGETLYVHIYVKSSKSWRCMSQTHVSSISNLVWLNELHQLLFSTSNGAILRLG

[2] = biological target: T2, Prp19, separately purified (analytical ultracentrifugation) (S. cerevisiae), P32523; assay: AUC; details: remark: other sources report otherwise
T2 chain: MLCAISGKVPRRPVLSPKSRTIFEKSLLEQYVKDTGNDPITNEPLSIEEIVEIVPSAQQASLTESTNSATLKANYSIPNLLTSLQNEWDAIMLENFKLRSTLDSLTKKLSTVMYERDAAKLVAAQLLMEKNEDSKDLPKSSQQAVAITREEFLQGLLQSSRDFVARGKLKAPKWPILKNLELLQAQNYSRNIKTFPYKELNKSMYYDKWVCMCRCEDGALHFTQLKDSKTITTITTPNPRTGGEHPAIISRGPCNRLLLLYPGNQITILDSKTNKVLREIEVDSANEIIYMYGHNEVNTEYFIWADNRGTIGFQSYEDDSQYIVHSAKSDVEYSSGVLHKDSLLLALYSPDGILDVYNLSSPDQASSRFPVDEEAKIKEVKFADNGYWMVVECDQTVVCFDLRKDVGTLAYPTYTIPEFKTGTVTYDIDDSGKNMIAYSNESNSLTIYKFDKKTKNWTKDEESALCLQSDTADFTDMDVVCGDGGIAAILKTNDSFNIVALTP

stoichiometry N [1]: 2 copies of Cwf2 per four copies of Cwf8
B1: Cwf2-Myc13 (S. pombe Cwc2) (natural protein, UniProt P87126 1-388, looked up)
chain: MSENGLEQEVTVEEKNNDVTEKILVEGEKSKEYEETPRKVKIVKRKKQPARKQIETRPEYEMEPEQPGQVYNLWYNKWSGGMRQDPLKSQVKSETRCVISRDSGYTKADKNPGSFFCLYFARGMCSEGSKCEYLHRLPKDTDFFNANVDCFGREKHADYRDDMGGVGSFLRQNYTLYVGGITPTDDIEEIVSRHFAEWGDIERIRVLNSRGIAFITYLNEANAQFAKEAMAHQSLDHDECLNVRWATTDPNPASQARNQRRLEERAANAVKKLLPKQFLLDLEETKNGKSGNRKRKLELEFGLKGYVPSDDLLYADGANSVHNQLAANEFPNKSQSEEGSNDDHKSVTTTESQNKFVNSQILSDLQVAKQAVHTNQSALVSYYDSDED

stoichiometry N [2]: 4
B2: Prp19, separately purified (analytical ultracentrifugation), P32523 1-503 (natural protein)
chain: T2 chain
